Molecular target: human A2A adenosine receptor (A2AAR), residues 1-316, N154Q (human) (UniProt P29274)
Test: SEC

Chain of UniProt P29274 (P29274 1-316 N154Q): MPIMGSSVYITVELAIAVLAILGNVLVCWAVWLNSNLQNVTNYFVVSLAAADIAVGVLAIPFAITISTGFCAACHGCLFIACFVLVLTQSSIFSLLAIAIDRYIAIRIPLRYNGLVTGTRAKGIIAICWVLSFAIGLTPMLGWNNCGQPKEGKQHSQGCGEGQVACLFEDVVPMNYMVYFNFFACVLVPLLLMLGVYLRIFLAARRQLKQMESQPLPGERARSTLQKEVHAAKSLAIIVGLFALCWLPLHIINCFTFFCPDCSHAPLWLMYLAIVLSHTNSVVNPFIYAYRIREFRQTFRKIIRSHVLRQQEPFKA

percent of the receptor in complex: 95%
Substance: mini-Gs, an engineered variant of the Gs protein α-subunit
